From paper PMC9482650, “Quantitative fragmentomics allow affinity mapping of interactomes” (Nature Communications, 2022)

How the values were obtained:
Experiment in all cases: holdup assay
Parameters in all cases: key: below the threshold = too weak to quantify, mostly under pKd 3.1 to 4
APBA2_1, Q99767 = biological target: T1, APBA2_1, Q99767
T1 sequence (Q99767 563-664, limits assumed, looked up): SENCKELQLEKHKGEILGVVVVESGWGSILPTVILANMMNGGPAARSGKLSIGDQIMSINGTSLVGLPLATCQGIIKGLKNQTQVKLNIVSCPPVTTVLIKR

APBA2_2, Q99767 = biological target: T2, APBA2_2, Q99767
T2 sequence (Q99767 654-744, limits assumed, looked up): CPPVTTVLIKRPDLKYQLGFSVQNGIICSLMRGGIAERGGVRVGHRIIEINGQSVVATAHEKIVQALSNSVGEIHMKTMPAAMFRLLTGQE

ARHGEF12, Q9NZN5-2 = biological target: ARHGEF12, Q9NZN5-2
ARHGEF12, Q9NZN5-2, sequence (Q9NZN5 other isoform, or with tags, fused parts or gaps): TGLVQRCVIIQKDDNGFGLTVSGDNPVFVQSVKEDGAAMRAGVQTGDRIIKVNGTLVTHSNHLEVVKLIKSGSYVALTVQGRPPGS

DFNB31_1, Q9P202 = biological target: T3, DFNB31_1, Q9P202
T3 sequence (Q9P202 135-233, limits assumed, looked up): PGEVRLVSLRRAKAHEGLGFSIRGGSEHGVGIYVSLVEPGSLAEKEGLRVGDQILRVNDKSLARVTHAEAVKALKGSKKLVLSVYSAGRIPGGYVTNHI

DLG3_1, Q92796 = biological target: T4, DLG3_1, Q92796
T4 sequence (Q92796 125-227, limits assumed, looked up): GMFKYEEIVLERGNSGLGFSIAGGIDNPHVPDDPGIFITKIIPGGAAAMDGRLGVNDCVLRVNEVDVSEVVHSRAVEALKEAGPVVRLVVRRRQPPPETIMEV

DLG4_1, P78352 = biological target: DLG4_1, P78352
DLG4_1, P78352, sequence (P78352 62-152): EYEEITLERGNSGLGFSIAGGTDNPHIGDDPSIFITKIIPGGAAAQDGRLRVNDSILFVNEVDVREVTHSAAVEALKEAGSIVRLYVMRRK

DLG4_2, P78352 = biological target: DLG4_2, P78352
DLG4_2, P78352, sequence (P78352 155-259): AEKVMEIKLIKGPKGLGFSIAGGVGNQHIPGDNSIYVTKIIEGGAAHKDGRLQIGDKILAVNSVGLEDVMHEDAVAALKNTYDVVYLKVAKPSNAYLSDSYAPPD

DVL3, Q92997 = biological target: T5, DVL3, Q92997
T5 sequence (Q92997 244-331, limits assumed, looked up): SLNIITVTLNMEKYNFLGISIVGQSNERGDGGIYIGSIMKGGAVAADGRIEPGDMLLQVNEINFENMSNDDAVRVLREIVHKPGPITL

GRIP2_4, Q9C0E4 = biological target: GRIP2_4, Q9C0E4
GRIP2_4, Q9C0E4, sequence (Q9C0E4 446-548): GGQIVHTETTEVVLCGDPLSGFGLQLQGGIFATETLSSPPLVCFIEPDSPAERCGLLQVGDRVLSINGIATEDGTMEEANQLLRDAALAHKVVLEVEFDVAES

GRIP2_5, Q9C0E4 = biological target: GRIP2_5, Q9C0E4
GRIP2_5, Q9C0E4, sequence (Q9C0E4 544-642): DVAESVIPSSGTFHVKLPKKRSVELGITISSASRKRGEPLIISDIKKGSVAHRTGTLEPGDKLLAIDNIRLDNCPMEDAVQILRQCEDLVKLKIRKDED

HTRA2, O43464 = biological target: HTRA2, O43464
HTRA2, O43464, sequence (O43464 355-458): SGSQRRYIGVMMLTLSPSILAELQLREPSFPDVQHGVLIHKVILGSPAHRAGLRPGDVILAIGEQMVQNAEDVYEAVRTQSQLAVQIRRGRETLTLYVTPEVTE

IL16_1, Q14005 = biological target: IL16_1, Q14005
IL16_1, Q14005, sequence (Q14005 210-306): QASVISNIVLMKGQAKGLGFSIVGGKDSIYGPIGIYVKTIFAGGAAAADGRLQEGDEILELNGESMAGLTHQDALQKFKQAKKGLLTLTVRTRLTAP

Inadl_9, Q8NI35 = biological target: Inadl_9, Q8NI35
Inadl_9, Q8NI35, sequence (Q8NI35 1530-1615): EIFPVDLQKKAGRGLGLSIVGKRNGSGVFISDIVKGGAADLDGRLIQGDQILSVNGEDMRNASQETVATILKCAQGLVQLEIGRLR

MAGI1_2, Q96QZ7 = biological target: MAGI1_2, Q96QZ7
MAGI1_2, Q96QZ7, sequence (Q96QZ7 456-580): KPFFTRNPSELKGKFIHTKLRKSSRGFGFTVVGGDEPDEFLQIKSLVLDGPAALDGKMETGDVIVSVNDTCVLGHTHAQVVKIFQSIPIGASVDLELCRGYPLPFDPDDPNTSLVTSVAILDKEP

MAGI2_4, Q86UL8 = biological target: MAGI2_4, Q86UL8
MAGI2_4, Q86UL8, sequence (Q86UL8 772-865): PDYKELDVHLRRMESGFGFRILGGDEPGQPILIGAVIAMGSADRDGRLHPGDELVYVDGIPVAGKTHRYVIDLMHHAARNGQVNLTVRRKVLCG

MAST2, Q6P0Q8 = biological target: MAST2, Q6P0Q8
MAST2, Q6P0Q8, sequence (Q6P0Q8 1099-1202): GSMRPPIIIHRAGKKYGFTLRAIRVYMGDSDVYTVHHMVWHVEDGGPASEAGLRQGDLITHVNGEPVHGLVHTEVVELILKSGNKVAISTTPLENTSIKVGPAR

NHERF3_4, Q5T2W1 = biological target: T6, NHERF3_4, Q5T2W1
T6 sequence (Q5T2W1 373-468, limits assumed, looked up): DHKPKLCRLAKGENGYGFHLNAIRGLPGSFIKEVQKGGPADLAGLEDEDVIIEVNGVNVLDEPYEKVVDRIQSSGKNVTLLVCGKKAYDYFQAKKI

PDLIM1, O00151 = biological target: PDLIM1, O00151
PDLIM1, O00151, sequence (O00151 1-87): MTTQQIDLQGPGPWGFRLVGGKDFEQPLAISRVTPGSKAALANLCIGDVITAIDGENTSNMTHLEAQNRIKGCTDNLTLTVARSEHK

PDZD7_3, Q9H5P4 = biological target: T7, PDZD7_3, Q9H5P4
T7 sequence (Q9H5P4 857-944, limits assumed, looked up): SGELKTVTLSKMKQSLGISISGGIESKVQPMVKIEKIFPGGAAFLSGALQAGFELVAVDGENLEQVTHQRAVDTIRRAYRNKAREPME

PTPN13_1, Q12923 = biological target: T8, PTPN13_1, Q12923
T8 sequence (Q12923 1088-1188, limits assumed, looked up): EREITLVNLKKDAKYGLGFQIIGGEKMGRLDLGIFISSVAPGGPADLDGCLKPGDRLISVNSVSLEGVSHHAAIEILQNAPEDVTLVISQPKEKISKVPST

PTPN3, P26045 = biological target: PTPN3, P26045
PTPN3, P26045, sequence (P26045 505-587): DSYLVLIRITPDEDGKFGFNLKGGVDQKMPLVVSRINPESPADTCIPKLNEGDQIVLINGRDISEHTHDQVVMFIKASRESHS

SHANK1, Q9Y566 = biological target: T9, SHANK1, Q9Y566
T9 sequence (Q9Y566 658-767, limits assumed, looked up): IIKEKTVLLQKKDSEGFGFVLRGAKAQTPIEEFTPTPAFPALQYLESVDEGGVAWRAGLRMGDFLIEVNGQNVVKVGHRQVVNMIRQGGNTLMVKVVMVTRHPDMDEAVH

SIPA1L2, Q9P2F8 = biological target: T10, SIPA1L2, Q9P2F8
T10 sequence (Q9P2F8 945-1036, limits assumed, looked up): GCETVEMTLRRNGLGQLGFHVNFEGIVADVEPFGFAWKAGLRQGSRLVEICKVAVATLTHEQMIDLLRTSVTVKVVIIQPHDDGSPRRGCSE

SNTA1, Q13424 = biological target: T11, SNTA1, Q13424
T11 sequence (Q13424 82-180, limits assumed, looked up): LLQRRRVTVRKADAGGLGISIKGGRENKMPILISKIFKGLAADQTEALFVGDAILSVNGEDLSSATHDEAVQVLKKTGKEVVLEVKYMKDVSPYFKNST

TJP1_2, Q07157 = biological target: TJP1_2, Q07157
TJP1_2, Q07157, sequence (Q07157 181-274): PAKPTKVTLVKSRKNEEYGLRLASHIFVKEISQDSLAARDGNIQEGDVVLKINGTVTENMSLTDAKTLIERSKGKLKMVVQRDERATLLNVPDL

TJP1_3, Q07157 = biological target: TJP1_3, Q07157
TJP1_3, Q07157, sequence (Q07157 416-512): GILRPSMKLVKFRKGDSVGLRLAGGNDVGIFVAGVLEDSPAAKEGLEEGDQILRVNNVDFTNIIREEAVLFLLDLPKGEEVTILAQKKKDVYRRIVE

[1] = plain residues with an end cap or a label only (N-terminal biotin on a linker: ado-ado)
[2] = plain residues with an end cap or a label only (N-terminal biotin on a linker: ttds)
[3] = plain residues with an end cap or a label only (N-terminal biotin on a linker: ahx)

## DAAHHDESNC [FMNL3, Q8IVF7]
APBA2_1, Q99767; [1]
  pKd: below the threshold
APBA2_2, Q99767; [1]
  pKd: below the threshold
ARHGEF12, Q9NZN5-2; [1]
  pKd: below the threshold
DFNB31_1, Q9P202; [1]
  pKd: below the threshold
DLG3_1, Q92796; [1]
  pKd: below the threshold
DLG4_1, P78352; [1]
  pKd: below the threshold
DLG4_2, P78352; [1]
  pKd: below the threshold
DVL3, Q92997; [1]
  pKd: below the threshold
GRIP2_4, Q9C0E4; [1]
  pKd: below the threshold
GRIP2_5, Q9C0E4; [1]
  pKd: below the threshold
HTRA2, O43464; [1]
  pKd: below the threshold
IL16_1, Q14005; [1]
  pKd: below the threshold
Inadl_9, Q8NI35; [1]
  pKd: below the threshold
MAGI1_2, Q96QZ7; [1]
  pKd: below the threshold
MAGI2_4, Q86UL8; [1]
  pKd: below the threshold
MAST2, Q6P0Q8; [1]
  pKd: 3.81
NHERF3_4, Q5T2W1; [1]
  pKd: below the threshold
PDLIM1, O00151; [1]
  pKd: below the threshold
PDZD7_3, Q9H5P4; [1]
  pKd: below the threshold
PTPN13_1, Q12923; [1]
  pKd: below the threshold
PTPN3, P26045; [1]
  pKd: below the threshold
SHANK1, Q9Y566; [1]
  pKd: below the threshold
SIPA1L2, Q9P2F8; [1]
  pKd: below the threshold
SNTA1, Q13424; [1]
  pKd: below the threshold
TJP1_2, Q07157; [1]
  pKd: below the threshold
TJP1_3, Q07157; [1]
  pKd: below the threshold

## PSRDRKETSI [RALBP1, Q15311]
APBA2_1, Q99767; [2]
  pKd: below the threshold
APBA2_2, Q99767; [2]
  pKd: below the threshold
ARHGEF12, Q9NZN5-2; [2]
  pKd: 4.06
DFNB31_1, Q9P202; [2]
  pKd: 4.35
DLG3_1, Q92796; [2]
  pKd: 3.3
DLG4_1, P78352; [2]
  pKd: 3.97
DLG4_2, P78352; [2]
  pKd: 4.58
DVL3, Q92997; [2]
  pKd: below the threshold
GRIP2_4, Q9C0E4; [2]
  pKd: below the threshold
GRIP2_5, Q9C0E4; [2]
  pKd: below the threshold
HTRA2, O43464; [2]
  pKd: below the threshold
IL16_1, Q14005; [2]
  pKd: below the threshold
Inadl_9, Q8NI35; [2]
  pKd: below the threshold
MAGI1_2, Q96QZ7; [2]
  pKd: 3.91
MAGI2_4, Q86UL8; [2]
  pKd: below the threshold
MAST2, Q6P0Q8; [2]
  pKd: 4.88
NHERF3_4, Q5T2W1; [2]
  pKd: below the threshold
PDLIM1, O00151; [2]
  pKd: below the threshold
PDZD7_3, Q9H5P4; [2]
  pKd: 4.89
PTPN13_1, Q12923; [2]
  pKd: below the threshold
PTPN3, P26045; [2]
  pKd: 4.75
SHANK1, Q9Y566; [2]
  pKd: below the threshold
SIPA1L2, Q9P2F8; [2]
  pKd: below the threshold
SNTA1, Q13424; [2]
  pKd: 4.06
TJP1_2, Q07157; [2]
  pKd: below the threshold
TJP1_3, Q07157; [2]
  pKd: below the threshold

## SQDPKKPSRV [CBY2, Q8NA61]
APBA2_1, Q99767; [1]
  pKd: below the threshold
APBA2_2, Q99767; [1]
  pKd: below the threshold
ARHGEF12, Q9NZN5-2; [1]
  pKd: below the threshold
DFNB31_1, Q9P202; [1]
  pKd: below the threshold
DLG3_1, Q92796; [1]
  pKd: below the threshold
DLG4_1, P78352; [1]
  pKd: 3.66
DLG4_2, P78352; [1]
  pKd: 3.49
DVL3, Q92997; [1]
  pKd: below the threshold
GRIP2_4, Q9C0E4; [1]
  pKd: below the threshold
GRIP2_5, Q9C0E4; [1]
  pKd: below the threshold
HTRA2, O43464; [1]
  pKd: below the threshold
IL16_1, Q14005; [1]
  pKd: below the threshold
Inadl_9, Q8NI35; [1]
  pKd: 4.08
MAGI1_2, Q96QZ7; [1]
  pKd: below the threshold
MAGI2_4, Q86UL8; [1]
  pKd: below the threshold
MAST2, Q6P0Q8; [1]
  pKd: below the threshold
NHERF3_4, Q5T2W1; [1]
  pKd: below the threshold
PDLIM1, O00151; [1]
  pKd: below the threshold
PDZD7_3, Q9H5P4; [1]
  pKd: below the threshold
PTPN13_1, Q12923; [1]
  pKd: below the threshold
PTPN3, P26045; [1]
  pKd: below the threshold
SHANK1, Q9Y566; [1]
  pKd: below the threshold
SIPA1L2, Q9P2F8; [1]
  pKd: below the threshold
SNTA1, Q13424; [1]
  pKd: 3.48
TJP1_2, Q07157; [1]
  pKd: below the threshold
TJP1_3, Q07157; [1]
  pKd: below the threshold

## EKPIDSETKM [SLC1A3, P43003]
APBA2_1, Q99767; [1]
  pKd: below the threshold
APBA2_2, Q99767; [1]
  pKd: below the threshold
ARHGEF12, Q9NZN5-2; [1]
  pKd: below the threshold
DFNB31_1, Q9P202; [1]
  pKd: 3.48
DLG3_1, Q92796; [1]
  pKd: below the threshold
DLG4_1, P78352; [1]
  pKd: 3.49
DLG4_2, P78352; [1]
  pKd: below the threshold
DVL3, Q92997; [1]
  pKd: below the threshold
GRIP2_4, Q9C0E4; [1]
  pKd: below the threshold
GRIP2_5, Q9C0E4; [1]
  pKd: below the threshold
HTRA2, O43464; [1]
  pKd: below the threshold
IL16_1, Q14005; [1]
  pKd: below the threshold
Inadl_9, Q8NI35; [1]
  pKd: below the threshold
MAGI1_2, Q96QZ7; [1]
  pKd: below the threshold
MAGI2_4, Q86UL8; [1]
  pKd: below the threshold
MAST2, Q6P0Q8; [1]
  pKd: 5.51
NHERF3_4, Q5T2W1; [1]
  pKd: below the threshold
PDLIM1, O00151; [1]
  pKd: below the threshold
PDZD7_3, Q9H5P4; [1]
  pKd: below the threshold
PTPN13_1, Q12923; [1]
  pKd: below the threshold
PTPN3, P26045; [1]
  pKd: 4.25
SHANK1, Q9Y566; [1]
  pKd: 3.76
SIPA1L2, Q9P2F8; [1]
  pKd: below the threshold
SNTA1, Q13424; [1]
  pKd: below the threshold
TJP1_2, Q07157; [1]
  pKd: below the threshold
TJP1_3, Q07157; [1]
  pKd: below the threshold

## VNENQKEYFF [CNTNAP4, Q9C0A0]
APBA2_1, Q99767; [3]
  pKd: below the threshold
APBA2_2, Q99767; [3]
  pKd: below the threshold
ARHGEF12, Q9NZN5-2; [3]
  pKd: below the threshold
DFNB31_1, Q9P202; [3]
  pKd: below the threshold
DLG3_1, Q92796; [3]
  pKd: below the threshold
DLG4_1, P78352; [3]
  pKd: below the threshold
DLG4_2, P78352; [3]
  pKd: below the threshold
DVL3, Q92997; [3]
  pKd: 4.9
GRIP2_4, Q9C0E4; [3]
  pKd: below the threshold
GRIP2_5, Q9C0E4; [3]
  pKd: below the threshold
HTRA2, O43464; [3]
  pKd: below the threshold
IL16_1, Q14005; [3]
  pKd: below the threshold
Inadl_9, Q8NI35; [3]
  pKd: below the threshold
MAGI1_2, Q96QZ7; [3]
  pKd: below the threshold
MAGI2_4, Q86UL8; [3]
  pKd: 3.55
MAST2, Q6P0Q8; [3]
  pKd: 5.08
NHERF3_4, Q5T2W1; [3]
  pKd: below the threshold
PDLIM1, O00151; [3]
  pKd: below the threshold
PDZD7_3, Q9H5P4; [3]
  pKd: below the threshold
PTPN13_1, Q12923; [3]
  pKd: below the threshold
PTPN3, P26045; [3]
  pKd: 4.55
SHANK1, Q9Y566; [3]
  pKd: below the threshold
SIPA1L2, Q9P2F8; [3]
  pKd: below the threshold
SNTA1, Q13424; [3]
  pKd: below the threshold
TJP1_2, Q07157; [3]
  pKd: below the threshold
TJP1_3, Q07157; [3]
  pKd: below the threshold
